Measurements as given in paper PMC9352680, “A comprehensive thermodynamic model for RNA binding by the Saccharomyces cerevisiae Pumilio protein PUF4”.

T1: PUF4 RNA-binding domain (Saccharomyces cerevisiae, UniProt P25339 537-888)
T1 sequence: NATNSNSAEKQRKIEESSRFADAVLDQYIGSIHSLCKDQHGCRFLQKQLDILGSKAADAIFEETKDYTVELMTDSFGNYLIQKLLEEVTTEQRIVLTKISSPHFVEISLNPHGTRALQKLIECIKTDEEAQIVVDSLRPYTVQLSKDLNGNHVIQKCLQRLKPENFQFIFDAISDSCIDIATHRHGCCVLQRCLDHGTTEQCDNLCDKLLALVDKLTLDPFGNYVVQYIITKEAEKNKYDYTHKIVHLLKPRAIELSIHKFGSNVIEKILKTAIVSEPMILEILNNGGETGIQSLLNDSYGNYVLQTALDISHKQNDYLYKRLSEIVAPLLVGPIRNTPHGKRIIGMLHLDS


biological target: T1, PUF4 RNA-binding domain; experiment: Mg; RNA-MaP; 20 mM Na-HEPES pH 7.4, 30 mM KOAc, 0.75 mM MgCl2, 0.1% Tween-20, 5% glycerol, 0.1 mg/mL BSA, 2 mM DTT; 25 C; 0.0125-409.6 nM protein; details: tags: N-His6-TEV cleaved; C-SNAP kept, Cy3B-labelled; label: tethered on chip by stalled RNA polymerase

Binder | Kd [nM]
Id_ii_S2_P5E.3_K5.2_C5.2_[T-1C]_H5.2_A5.1_F5.1_T5.2_[T11C]_[A12T] (ssRNA) RNA: UUUGAUUAAUAUGAUAUCGUUCUUUCUCCUAUAUUAUUACUUUCUUUCUCGAUAUCAUAUUAAUCUUU | 57.9
Id_ii_S2_P5E.3_K5.2_C5.2_H5.2_A5.1_F5.1_T5.2_[T11A]_[A12T] (ssRNA) RNA: UUUGAUUAAUAUGAUAUCGUUCUUUCUCUUAUAUUAUUAAUUUCUUUCUCGAUAUCAUAUUAAUCUUU | 234
Id_ii_S2_P5E.3_K5.2_C5.2_[T-1A]_H5.2_A5.1_F5.1_T5.2_[T11G]_[A12C] (ssRNA) RNA: UUUGAUUAAUAUGAUAUCGUUCUUUCUCAUAUAUUAUUAGCUUCUUUCUCGAUAUCAUAUUAAUCUUU | 112
Id_ii_S2_P5E.3_K5.2_C5.2_[T-1A]_H5.2_A5.1_F5.1_T5.2_[T11C]_[A12G] (ssRNA) RNA: UUUGAUUAAUAUGAUAUCGUUCUUUCUCAUAUAUUAUUACGUUCUUUCUCGAUAUCAUAUUAAUCUUU | 372
Id_ii_S2_P5E.4_K5.3_C5.2_[C-2G]_[T-1C]_H5.3_A5.1_F5.1_T5.2_[A12C] (ssRNA) RNA: UUUGAUUAAUAUGAUAUCGUUCUUUCUGCACACUUAUUAUCUUCUUUCUCGAUAUCAUAUUAAUCUUU | 359
Id_ii_S2_P5E.4_K5.3_C5.2_[C-2G]_H5.3_A5.1_F5.1_T5.2_[T11C]_[A12T] (ssRNA) RNA: UUUGAUUAAUAUGAUAUCGUUCUUUCUGUACACUUAUUACUUUCUUUCUCGAUAUCAUAUUAAUCUUU | 11
Id_ii_S2_P5E.3_K5.2_C5.2_[T-1A]_H5.2_A5.1_F5.1_T5.2_[T11A]_[A12T] (ssRNA) RNA: UUUGAUUAAUAUGAUAUCGUUCUUUCUCAUAUAUUAUUAAUUUCUUUCUCGAUAUCAUAUUAAUCUUU | 131
Id_ii_S2_P5E.3_K5.2_C5.2_H5.2_A5.1_F5.1_T5.2_[A12T] (ssRNA) RNA: UUUGAUUAAUAUGAUAUCGUUCUUUCUCUUAUAUUAUUAUUUUCUUUCUCGAUAUCAUAUUAAUCUUU | 110
Id_ii_S2_P5E.3_K5.2_C5.2_[T-1A]_H5.2_A5.1_F5.1_T5.2_[T11A] (ssRNA) RNA: UUUGAUUAAUAUGAUAUCGUUCUUUCUCAUAUAUUAUUAAAUUCUUUCUCGAUAUCAUAUUAAUCUUU | 246
Id_ii_S2_P5E.4_K5.3_C5.2_[C-2G]_[T-1C]_H5.3_A5.1_F5.1_T5.2_[T11A]_[A12C] (ssRNA) RNA: UUUGAUUAAUAUGAUAUCGUUCUUUCUGCACACUUAUUAACUUCUUUCUCGAUAUCAUAUUAAUCUUU | 451
Id_ii_S2_P5E.3_K5.2_C5.2_[T-1A]_H5.2_A5.1_F5.1_T5.2_[T11C]_[A12C] (ssRNA) RNA: UUUGAUUAAUAUGAUAUCGUUCUUUCUCAUAUAUUAUUACCUUCUUUCUCGAUAUCAUAUUAAUCUUU | 69.4
Id_ii_S2_P5E.3_K5.2_C5.2_[T-1A]_H5.2_A5.1_F5.1_T5.2_[A12C] (ssRNA) RNA: UUUGAUUAAUAUGAUAUCGUUCUUUCUCAUAUAUUAUUAUCUUCUUUCUCGAUAUCAUAUUAAUCUUU | 151
Id_ii_S2_P5E.3_K5.2_C5.2_H5.2_A5.1_F5.1_T5.2_[T11A]_[A12C] (ssRNA) RNA: UUUGAUUAAUAUGAUAUCGUUCUUUCUCUUAUAUUAUUAACUUCUUUCUCGAUAUCAUAUUAAUCUUU | 230
Id_ii_S2_P5E.3_K5.2_C5.2_[T-1C]_H5.2_A5.1_F5.1_T5.2_[T11A]_[A12C] (ssRNA) RNA: UUUGAUUAAUAUGAUAUCGUUCUUUCUCCUAUAUUAUUAACUUCUUUCUCGAUAUCAUAUUAAUCUUU | 108
Id_ii_S2_P5E.3_K5.2_C5.2_H5.2_A5.1_F5.1_T5.2_[T11G]_[A12T] (ssRNA) RNA: UUUGAUUAAUAUGAUAUCGUUCUUUCUCUUAUAUUAUUAGUUUCUUUCUCGAUAUCAUAUUAAUCUUU | 462
Id_ii_S2_P5E.3_K5.2_C5.2_H5.2_A5.1_F5.1_T5.2_[T11C]_[A12C] (ssRNA) RNA: UUUGAUUAAUAUGAUAUCGUUCUUUCUCUUAUAUUAUUACCUUCUUUCUCGAUAUCAUAUUAAUCUUU | 92.1
Id_ii_S2_P5E.3_K5.2_C5.2_[T-1A]_H5.2_A5.1_F5.1_T5.2_[T11A]_[A12G] (ssRNA) RNA: UUUGAUUAAUAUGAUAUCGUUCUUUCUCAUAUAUUAUUAAGUUCUUUCUCGAUAUCAUAUUAAUCUUU | 1200
Id_ii_S2_P5E.3_K5.2_C5.2_H5.2_A5.1_F5.1_T5.2_[T11C]_[A12T] (ssRNA) RNA: UUUGAUUAAUAUGAUAUCGUUCUUUCUCUUAUAUUAUUACUUUCUUUCUCGAUAUCAUAUUAAUCUUU | 77.9
Id_ii_S2_P5E.4_K5.3_C5.2_[C-2G]_[T-1C]_H5.3_A5.1_F5.1_T5.2_[T11C]_[A12G] (ssRNA) RNA: UUUGAUUAAUAUGAUAUCGUUCUUUCUGCACACUUAUUACGUUCUUUCUCGAUAUCAUAUUAAUCUUU | > 2300
Id_ii_S2_P5E.4_K5.3_C5.2_[C-2G]_H5.3_A5.1_F5.1_T5.2_[T11A]_[A12C] (ssRNA) RNA: UUUGAUUAAUAUGAUAUCGUUCUUUCUGUACACUUAUUAACUUCUUUCUCGAUAUCAUAUUAAUCUUU | 2.19
Id_ii_S2_P5E.4_K5.3_C5.2_[C-2G]_[T-1C]_H5.3_A5.1_F5.1_T5.2_[T11A] (ssRNA) RNA: UUUGAUUAAUAUGAUAUCGUUCUUUCUGCACACUUAUUAAAUUCUUUCUCGAUAUCAUAUUAAUCUUU | 549

Binder | Kd [nM]
Id_ii_S2_P5E.3_K5.2_C5.2_[T-1A]_H5.2_A5.1_F5.1_T5.2_[T11A]_[A12C] (ssRNA) RNA: UUUGAUUAAUAUGAUAUCGUUCUUUCUCAUAUAUUAUUAACUUCUUUCUCGAUAUCAUAUUAAUCUUU | 96.4
Id_ii_S2_P5E.3_K5.2_C5.2_H5.2_A5.1_F5.1_T5.2_[A12C] (ssRNA) RNA: UUUGAUUAAUAUGAUAUCGUUCUUUCUCUUAUAUUAUUAUCUUCUUUCUCGAUAUCAUAUUAAUCUUU | 65.7
Id_ii_S2_P5E.3_K5.2_C5.2_[T-1C]_H5.2_A5.1_F5.1_T5.2_[T11A]_[A12T] (ssRNA) RNA: UUUGAUUAAUAUGAUAUCGUUCUUUCUCCUAUAUUAUUAAUUUCUUUCUCGAUAUCAUAUUAAUCUUU | 138
Id_ii_S2_P5E.3_K5.2_C5.2_H5.2_A5.1_F5.1_T5.2_[T11C] (ssRNA) RNA: UUUGAUUAAUAUGAUAUCGUUCUUUCUCUUAUAUUAUUACAUUCUUUCUCGAUAUCAUAUUAAUCUUU | 103
Id_ii_S2_P5E.4_K5.3_C5.2_[C-2G]_H5.3_A5.1_F5.1_T5.2_[T11C]_[A12C] (ssRNA) RNA: UUUGAUUAAUAUGAUAUCGUUCUUUCUGUACACUUAUUACCUUCUUUCUCGAUAUCAUAUUAAUCUUU | 3.03
Id_ii_S2_P5E.3_K5.2_C5.2_[T-1C]_H5.2_A5.1_F5.1_T5.2_[A12T] (ssRNA) RNA: UUUGAUUAAUAUGAUAUCGUUCUUUCUCCUAUAUUAUUAUUUUCUUUCUCGAUAUCAUAUUAAUCUUU | 79.4
Id_ii_S2_P5E.3_K5.2_C5.2_[T-1A]_H5.2_A5.1_F5.1_T5.2_[T11C] (ssRNA) RNA: UUUGAUUAAUAUGAUAUCGUUCUUUCUCAUAUAUUAUUACAUUCUUUCUCGAUAUCAUAUUAAUCUUU | 166
Id_ii_S2_P5E.3_K5.2_C5.2_H5.2_A5.1_F5.1_T5.2_[T11C]_[A12G] (ssRNA) RNA: UUUGAUUAAUAUGAUAUCGUUCUUUCUCUUAUAUUAUUACGUUCUUUCUCGAUAUCAUAUUAAUCUUU | 426
Id_ii_S2_P5E.3_K5.2_C5.2_[T-1C]_H5.2_A5.1_F5.1_T5.2_[T11A]_[A12G] (ssRNA) RNA: UUUGAUUAAUAUGAUAUCGUUCUUUCUCCUAUAUUAUUAAGUUCUUUCUCGAUAUCAUAUUAAUCUUU | 887
Id_ii_S2_P5E.3_K5.2_C5.2_[T-1A]_H5.2_A5.1_F5.1_T5.2_[T11C]_[A12T] (ssRNA) RNA: UUUGAUUAAUAUGAUAUCGUUCUUUCUCAUAUAUUAUUACUUUCUUUCUCGAUAUCAUAUUAAUCUUU | 90.7
Id_ii_S2_P5E.4_K5.3_C5.2_[C-2G]_[T-1C]_H5.3_A5.1_F5.1_T5.2_[A12T] (ssRNA) RNA: UUUGAUUAAUAUGAUAUCGUUCUUUCUGCACACUUAUUAUUUUCUUUCUCGAUAUCAUAUUAAUCUUU | 341
Id_ii_S2_P5E.4_K5.3_C5.2_[C-2G]_[T-1C]_H5.3_A5.1_F5.1_T5.2_[T11A]_[A12T] (ssRNA) RNA: UUUGAUUAAUAUGAUAUCGUUCUUUCUGCACACUUAUUAAUUUCUUUCUCGAUAUCAUAUUAAUCUUU | 408
Id_ii_S2_P5E.3_K5.2_C5.2_H5.2_A5.1_F5.1_T5.2_[T11G]_[A12C] (ssRNA) RNA: UUUGAUUAAUAUGAUAUCGUUCUUUCUCUUAUAUUAUUAGCUUCUUUCUCGAUAUCAUAUUAAUCUUU | 127
Id_ii_S2_P5E.4_K5.3_C5.2_[C-2G]_[T-1C]_H5.3_A5.1_F5.1_T5.2_[T11C] (ssRNA) RNA: UUUGAUUAAUAUGAUAUCGUUCUUUCUGCACACUUAUUACAUUCUUUCUCGAUAUCAUAUUAAUCUUU | 729
Id_ii_S2_P5E.3_K5.2_C5.2_[T-1A]_H5.2_A5.1_F5.1_T5.2_[A12T] (ssRNA) RNA: UUUGAUUAAUAUGAUAUCGUUCUUUCUCAUAUAUUAUUAUUUUCUUUCUCGAUAUCAUAUUAAUCUUU | 223
Id_ii_S2_P5E.3_K5.2_C5.2_[T-1C]_H5.2_A5.1_F5.1_T5.2_[T11A] (ssRNA) RNA: UUUGAUUAAUAUGAUAUCGUUCUUUCUCCUAUAUUAUUAAAUUCUUUCUCGAUAUCAUAUUAAUCUUU | 151
Id_ii_S2_P5E.4_K5.3_C5.2_[C-2G]_[T-1C]_H5.3_A5.1_F5.1_T5.2_[T11C]_[A12T] (ssRNA) RNA: UUUGAUUAAUAUGAUAUCGUUCUUUCUGCACACUUAUUACUUUCUUUCUCGAUAUCAUAUUAAUCUUU | 409
UCUCUUUGUAUUUAUAUCUCUU (ssRNA) [Ib_S1_P5E.1_K5.1_C5.1_H5.1_A5.1_[A7T]_F5.1_[T8A]_T5.1] | 5.27
UCUCUUUGUACUAUGAUCUCUU (ssRNA) [Ib_S1_P5E.1_K5.1_C5.1_H5.1_A5.1_[T5C]_F5.1_[T9G]_T5.1] | 13.2
UCUCUUUGUAAUAUGAUCUCUU (ssRNA) [Ib_S1_P5E.1_K5.1_C5.1_H5.1_A5.1_[T5A]_F5.1_[T9G]_T5.1] | 22.3
UCUCUUUGUACUAUCAUCUCUU (ssRNA) [Ic_S1_P5E.1_K5.1_C5.1_H5.1_A5.1_[T5C]_F5.1_[T9C]_T5.1] | 17.8
